Conditions in all cases: tags: R&D Systems, carrier-free, E. coli produced; chain copies: 2 (homodimer, inferred); label: 5'-32P; three-way helix junction
The target of series [1] is T1, PDGF-BB (Homo sapiens, UniProt P01127 P01127:82-190). Description: cell_activity; inhibition of thymidine incorporation in PAE cells expressing PDGF beta-receptor, 20 ng/ml PDGF-BB. The protocol: (§1) The incorporation of [^3H]thymidine into PAE cells expressing PDGF β-receptor in response to 20 ng/ml of PDGF-BB or 10% fetal calf serum and in the presence of different concentrations of DNA ligands was performed as described (Mori et al., (1991) *J. Biol. Chem.* 266, 21158–21164). After incubation for 24 h at 37° C., ^3H-radioactivity incorporated into DNA was determined using a β-counter.
(§2) We furthermore investigated the ability of the DNA ligands to inhibit the mitogenic effects of PDGF-BB on PAE cells expressing PDGF β-receptors. […] The control ligand T39 had no effect. Moreover, none of the ligands inhibited the stimulatory effects of fetal calf serum on [^3H]thymidine incorporation in these cells, showing that the inhibitory effects are specific for PDGF.
For orientation: Uptake of a labelled nucleoside into DNA is a usual measure of proliferation.

The target of series [2] is T1, PDGF-BB. As to the kind of experiment: cell_activity; slightly less efficient than 36t; thymidine incorporation. How it is done:
as §1, §2

Series [3] deals with T1, PDGF-BB. Description: cell_activity; slightly more efficient than 36t; thymidine incorporation. How it is done: as §1, §2

Drawing on patent publication US5723594, “High affinity PDGF nucleic acid ligands” (NeXstar Pharmaceuticals, Inc.), this text covers IC50 for 3 molecules.

T1 sequence (P01127 82-190, one chain of several): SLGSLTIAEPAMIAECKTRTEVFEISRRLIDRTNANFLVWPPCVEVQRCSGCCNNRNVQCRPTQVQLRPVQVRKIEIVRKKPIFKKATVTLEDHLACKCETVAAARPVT

As a reminder, the IC50 is the point on the concentration scale where inhibition reaches its midpoint. Higher therefore signals lower potency. Molecule CACAGGCTACGGCACGTAGAGCATCACCATGATCCTGTGT (ssDNA, 3'-3' linked inverted T at 3' end) [36t] had an IC50 in series [1] of 2.5 nM.
In series [2], TGGGAGGGCGCGTTCTTCGTGGTTACTTTTAGTCCCGT (ssDNA, 3'-3' linked inverted T at 3' end) [20t] displayed an IC50 of over 2.5 nM.
Take TACTCAGGGCACTGCAAGCAATTGTGGTCCCAATGGGCTGAGTAT (ssDNA, 3'-3' linked inverted T at 3' end) [41t]: in series [3], the IC50 is under 2.5 nM.
